The target of assay [1] is T1, monkey 4-1BB on CHOK1 cells (monkey).
T1 construct: whole, on cells; also called CHOK1-c4-1BB
Description: FACS, CHOK1-c4-1BB cells; Ab 0.016 ug/ml. The source says:
(§1) The pIRES plasmid carrying the full-length gene of monkey-derived […] (the preparation method is the same as the preparation method of the pCpC vector carrying the human-derived IgG Fc fragment (hFc) in “Preparation of immunogen A” of the step (1) in Example 1, in which the database accession number of the amino acid sequence of the extracellular region of monkey 4-1BB protein (Phe19-Thr239) is G7PSE7) was transfected into CHOK1 cell line to obtain CHOK1 stable transfected cell line containing monkey 4-1BB (herein referred to as CHOK1-c4-1BB stable cell line). The CHOK1-h4-1BB stable cell line and the CHOK1-c4-1BB stable cell line were expanded and cultivated to 90% confluence in T-75 cell culture flasks. The medium was exhausted, and washed twice with HBSS buffer (Hanks Balanced Salt Solution, purchased from Invitrogen), and then the cells were treated and collected with enzyme-free cell dissociation solution (Versene solution, purchased from Life Technology). The cells were washed twice with HBSS buffer, and after cell counting, the cells were diluted with HBSS buffer to 2×10⁶ cells per ml, and 1% goat serum blocking solution was added, the percentage being the mass percentage. It was incubated on ice for 30 minutes, and then washed twice with HBSS buffer by centrifugation. The collected cells were suspended in FACS buffer (HBSS containing 1% BSA, the percentage was the mass percentage) to 2×10⁶ cells/mL, and 100 μl per well was added to a 96-well FACS reaction plate. The purified 4-1BB antibody test sample obtained in Example 2 was added, 100 microliters per well and incubated on ice for 2 hours. […] It was washed three times with FACS buffer by centrifugation, and 100 μl of fixative [4% (v/v) paraformaldehyde] per well was added to suspend cells, and washed twice with FACS buffer after 10 minutes by centrifugation. The cells were suspended with 100 microliters of FACS buffer, and the results were detected and analyzed with FACS (FACS Calibur, purchased from BD).

The target in assay [2] is T1, monkey 4-1BB on CHOK1 cells. Description: FACS, CHOK1-c4-1BB cells; Ab 0.00013 ug/ml.
Excerpt: as §1

In assay [3] the target is T2, human 4-1BB, full length, on transfected cells (human, UniProt Q07011 24-255).
T2 construct: whole, on cells; also called CHOK1-h4-1BB
T2 sequence (Q07011 24-255): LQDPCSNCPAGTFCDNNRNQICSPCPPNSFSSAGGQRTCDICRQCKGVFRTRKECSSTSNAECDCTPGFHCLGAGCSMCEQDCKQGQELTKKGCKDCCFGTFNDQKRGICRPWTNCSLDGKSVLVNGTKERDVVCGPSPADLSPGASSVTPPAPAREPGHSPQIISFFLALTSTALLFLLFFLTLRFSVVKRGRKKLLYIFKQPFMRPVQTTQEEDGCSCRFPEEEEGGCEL
Description: FACS, CHOK1-h4-1BB cells; Ab 0.00013 ug/ml.
Excerpt: as §1

Assay [4] deals with T1, monkey 4-1BB on CHOK1 cells. The assay can be described thus: FACS, CHOK1-c4-1BB cells; Ab 0.00064 ug/ml.
Excerpt: as §1

Assay [5] addresses T2, human 4-1BB, full length, on …. Description: FACS, CHOK1-h4-1BB cells; Ab 0.08 ug/ml.
Excerpt: as §1

Assay [6] has as its target T1, monkey 4-1BB on CHOK1 cells. The assay can be described thus: FACS, CHOK1-c4-1BB cells; Ab 0.0032 ug/ml.
Excerpt: as §1

For assay [7], the target named is T2, human 4-1BB, full length, on …. The assay can be described thus: FACS, CHOK1-h4-1BB cells; Ab 10 ug/ml.
Excerpt: as §1

The target is the same in assay [8]. The assay can be described thus: FACS, CHOK1-h4-1BB cells; Ab 2 ug/ml.
Excerpt: as §1

In assay [9] the target is T1, monkey 4-1BB on CHOK1 cells. Description: FACS, CHOK1-c4-1BB cells; Ab 10 ug/ml.
Excerpt: as §1

Assay [10] has as its target T2, human 4-1BB, full length, on …. Description: FACS, CHOK1-h4-1BB cells; Ab 0.0032 ug/ml.
Excerpt: as §1

The target of assay [11] is T1, monkey 4-1BB on CHOK1 cells. The assay can be described thus: FACS, CHOK1-c4-1BB cells; Ab 2 ug/ml.
Excerpt: as §1

The target is the same in assay [12]. The assay can be described thus: FACS, CHOK1-c4-1BB cells; Ab 0.4 ug/ml.
Excerpt: as §1

The target in assay [13] is T2, human 4-1BB, full length, on …. Description: FACS, CHOK1-h4-1BB cells; Ab 0.00064 ug/ml.
Excerpt: as §1

Assay [14] shares this target. Description: FACS, CHOK1-h4-1BB cells; Ab 0.4 ug/ml.
Excerpt: as §1

Assay [15] has the same target. Description: FACS, CHOK1-h4-1BB cells; Ab 0.016 ug/ml.
Excerpt: as §1

The target of assay [16] is T1, monkey 4-1BB on CHOK1 cells. Description: FACS, CHOK1-c4-1BB cells; Ab 0.08 ug/ml.
Excerpt: as §1

Assay [17] deals with T3, hFc-tagged human 4-1BB extracellular domain protein (4-1BB-hFc) (human, UniProt Q07011 24-186, limits assumed).
T3 construct: also called immunogen A; 4-1BB^ECD-hFc; not shown: human IgG Fc fragment (hFc) of the pCpC vector
The assay can be described thus: ELISA: 4-1BB-hFc coated at 0.5 µg/mL, his-muCD8a-4-1BBL titrated, detection by biotin anti-mouse CD8a and streptavidin-HRP, OD450.

The record followed here is patent US20200347144A1 (SHANGHAI HYAMAB BIOTECH, published 2020).

B1: 100F3C4 (antibody, V domains shown)
VH: QVQLQESGPGLVKPSGTLSLTCAVSGGSISSSNWWSWVRQPPGKGLEWIGEIYHSGSTNYNPSLKSRVTMSVDKSKNQFSLELRSVTAADTAVYYCARDAVDAYYYYYGMDVWGQGTTVTVSS
VL: DIQLTQSPSFLSASVGDRVTITCRASQGISSYLAWYQQKPGKAPKLLIYAASTLQSGVPSRFSGSGSGTEFTLTISSLQPEDFATYYCQHLNSYPFTFGPGTKVDLK
For B1, the average fluorescence intensity was 15.2 MFI in assay [1]; 2.2 MFI in assay [2]; 2 MFI in assay [3]; 2.9 MFI in assay [4]; 43.1 MFI in assay [5]; 5.4 MFI in assay [6]. In addition, the average fluorescence intensity is 458 MFI in assay [7]; 390 MFI in assay [8]; 552 MFI in [9]; 4.6 MFI in assay [10]; 479 MFI in assay [11]; 204 MFI in assay [12]. Further, the average fluorescence intensity amounted to 2.5 MFI in assay [13], 154 MFI in assay [14], 12.7 MFI in assay [15] and 51.1 MFI in assay [16].

B2: his-muCD8a-4-1BBL^ECD fusion protein (ligand, UniProt P01731 28-194, looked up)
chain: KPQAPELRIFPKKMDAELGQKVDLVCEVLGSVSQGCSWLFQNSSSKLPQPTFVVYMASSHNKITWDEKLNSSKLFSAMRDTNNKYVLTLNKFSKENEGYYFCSVISNSVMYFSSVVPVLQKVNSTTTKPVLRTPSPVHPTGTSQPQRPEDCRPRGSVKGTGLDFACDREGPELSPDDPAGLLDLRQGMFAQLVAQNVLLIDGPLSWYSDPGLAGVSLTGGLSYKEDTKELVVAKAGVYYVFFQLELRRVVAGEGSGSVSLALHLQPLRSAAGAAALALTVDLPPASSEARNSAFGFQGRLLHLSAGQRLGVHLHTEARARHAWQLTQGATVLGLFRVTPEIPAGLPSPRSE
notes: also called 4-1BB ligand protein; not shown: his-tag on the N side
As for B2, the “EC50 (read off the curve)” value in assay [17] is about 0.03 µg/mL.
